This is an account of results in US20200330553A1 (BRIGHAM AND WOMEN S HOSPITAL, published 2020).

Data set [1] concerns the molecule itself. Description: non-reducing western blot, HEK293 cells and EVs. An excerpt:
Next, the intermolecular disulfide bond was examined in the intracellular domain. Since sortilin has only one cysteine (Cys⁷⁸³) in the intracellular domain, the cysteine was expected to form an intermolecular disulfide bond for dimerization in the intracellular domain. Cys⁷⁸³ was replaced by alanine (C783A) in 6×His-sortilin ICD+TMD and FLAG-sortilin Full (FIG. 5A). […] The homodimers of low molecular weight were mainly transported to EVs, while homodimers of high molecular weight and multimers were mainly not transported to EVs (FIG. 5D). […] Since Cys⁷⁸³ was reported to be palmitoylated (22), the connection between palmitoylation and intermolecular disulfide bond was studied by incubating FLAG-sortilin HEK293 cells with an inhibitor of palmitoylation, 2-fluoropalmitic acid (2-FPA) (22), which increased only homodimers of lower molecular size in the cells (FIG. 5E).
Cells, EVs and the supernatant of culture medium were lysed with IP lysis buffer (Thermo Fisher Scientific Inc., Cat#87787) containing protease inhibitor (Roche Diagnostics, Cat#04693159001). Protein concentration was measured using the bicinchoninic acid (BCA) method (Thermo Fisher Scientific Inc., Cat#23225). Laemmli buffer (Boston Bioproduct; non-reducing, Cat#BP-110NR; reducing, Cat#BP-111R) was added to the lysate, and boiled at 95° C. for 5 minutes.

Data set [2] concerns the molecule itself. The data set is described as follows: MG-132, anti-FLAG immunoprecipitation, non-reducing western blot. How it is done:
FLAG-sortilin Full and ECD+TMD forms homodimers and multimers. Empty vector was used as control. […] MG-132 increased FLAG-sortilin ICD+TMD in a time and concentration-dependent manner. […] Monomers, homodimers and multimers are abbreviated as MO, D and MU, respectively. IB, immunoblotting.
Cells or EVs were lysed in IP lysis buffer. Anti-FLAG M2 antibody (5 μg) or mouse IgG (5 lig, R&D Systems, Cat#MAB002, Lot# IX2415091) were incubated with Dynabeads with Protein G (Thermo Fisher Scientific Inc., Cat#10004D) by rotation for overnight at 4° C. Cell lysate was incubated for 4 hours at 4° C. under rotating conditions. The bead-antibody-protein complex was washed with PBS 3 times. Then, Laemmli buffer was added to the precipitates for SDS-PAGE.
In general terms: A western blot detects proteins with antibodies after separation by electrophoresis.

B1: FLAG-sortilin C783A (receptor)
chain: SAPDYKDDDDKGEDEECGRVRDFVAKLANNTHQHVFDDLRGSVSLSWVGDSTGVILVLTTFHVPLVIMTFGQSKLYRSEDYGKNFKDITDLINNTFIRTEFGMAIGPENSGKVVLTAEVSGGSRGGRIFRSSDFAKNFVQTDLPFHPLTQMMYSPQNSDYLLALSTENGLWVSKNFGGKWEEIHKAVCLAKWGSDNTIFFTTYANGSCKADLGALELWRTSDLGKSFKTIGVKIYSFGLGGRFLFASVMADKDTTRRIHVSTDQGDTWSMAQLPSVGQEQFYSILAANDDMVFMHVDEPGDTGFGTIFTSDDRGIVYSKSLDRHLYTTTGGETDFTNVTSLRGVYITSVLSEDNSIQTMITFDQGGRWTHLRKPENSECDATAKNKNECSLHIHASYSISQKLNVPMAPLSEPNAVGIVIAHGSVGDAISVMVPDVYISDDGGYSWTKMLEGPHYYTILDSGGIIVAIEHSSRPINVIKFSTDEGQCWQTYTFTRDPIYFTGLASEPGARSMNISIWGFTESFLTSQWVSYTIDFKDILERNCEEKDYTIWLAHSTDPEDYEDGCILGYKEQFLRLRKSSMCQNGRDYVVTKQPSICLCSLEDFLCDFGYYRPENDSKCVEQPELKGHDLEFCLYGREEHLTTNGYRKIPGDKCQGGVNPVREVKDLKKKCTSNFLSPEKQNSKSNSVPIILAIVGLMLVTVVAGVLIVKKYVAGGRFLVHRYSVLQQHAEANGVDGVDALDTASHTNKSGYHDDSDEDLLE
notes: also called C783A mutant
With B1, in data set [1], the binding result is listed as “binds”.

B2: FLAG-sortilin ICD+TMD (receptor)
chain: SAPDYKDDDDKNSVPIILAIVGLMLVTVVAGVLIVKKYVCGGRFLVHRYSVLQQHAEANGVDGVDALDTASHTNKSGYHDDSDEDLLE
notes: written as the form after propeptide cleavage
Consider B2, for which the binding result in data set [2] was “binds”.
